Measurements as given in publication PMC3985474.
Like-named read-outs stand apart in the source and are kept apart here.

Experiments:
Test in all cases: AUC
Bac-Cys-ELP1 [1] = target: Bac-Cys-ELP1
Bac-Cys-ELP1 [2] = target: Bac-Cys-ELP1; remark: listed apart in the source
SynB1-Cys-ELP1 [3] = target: SynB1-Cys-ELP1
SynB1-Cys-ELP1 [4] = target: SynB1-Cys-ELP1; remark: listed apart in the source

Row | Substance | Ka (Bac-Cys-ELP1 [1]) [M⁻¹] | Ka (Bac-Cys-ELP1 [2]) [M⁻¹] | Ka (SynB1-Cys-ELP1 [3]) [M⁻¹] | Ka (SynB1-Cys-ELP1 [4]) [M⁻¹]
1 | Bac-Cys-ELP1 | 552 | 1290 |  | 
2 | SynB1-Cys-ELP1 |  |  | 597 | 1480
